Assay results: publication PMC3470933 (Molecular Microbiology, 2012)

T1: T. brucei pyridoxal kinase (TbPdxK) (Trypanosoma brucei, UniProt O15927)
T1 sequence (O15927 1-300): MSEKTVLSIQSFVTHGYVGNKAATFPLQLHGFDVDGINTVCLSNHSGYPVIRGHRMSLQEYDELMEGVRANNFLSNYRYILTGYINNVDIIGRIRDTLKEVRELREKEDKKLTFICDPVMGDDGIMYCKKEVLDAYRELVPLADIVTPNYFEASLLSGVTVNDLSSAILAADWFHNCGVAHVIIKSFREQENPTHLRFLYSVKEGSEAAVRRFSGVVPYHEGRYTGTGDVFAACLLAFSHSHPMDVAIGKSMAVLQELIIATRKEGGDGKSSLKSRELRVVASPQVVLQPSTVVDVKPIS


Assays:
[1] = target: T1, T. brucei pyridoxal kinase (TbPdxK); experiment: coupled PK/LDH assay; assay type: biochemical; settings: read-out: Km^app
[2] = substrate: Cc1ncc(CO)c(CO)c1O; experiment: purified protein; assay type: biochemical, Trypanosoma brucei; settings: ATP, Mg2+
[3] = substrate: Cc1ncc(CO)c(CN)c1O; experiment: purified protein; assay type: biochemical, Trypanosoma brucei; settings: ATP, Mg2+
[4] = substrate: Cc1ncc(CO)c(C=O)c1O; experiment: purified protein; assay type: biochemical, Trypanosoma brucei; settings: ATP, Mg2+

| Molecule | Km [1] [µM] | Km [2] [µM] | Km [3] [µM] | Km [4] [µM] |
| --- | --- | --- | --- | --- |
| COCc1c(CO)cnc(C)c1O [GT, ginkgotoxin] | 46.6 ± 10.2 | – | – | – |
| T. brucei pyridoxal kinase (TbPdxK) (Trypanosoma brucei) (protein) MSEKTVLSIQSFVTHGYVGNKAATFPLQLHGFDVDGINTVCLSNHSGYPVIRGHRMSLQEYDELMEGVRANNFLSNYRYILTGYINNVDIIGRIRDTLKEVRELREKEDKKLTFICDPVMGDDGIMYCKKEVLDAYRELVPLADIVTPNYFEASLLSGVTVNDLSSAILAADWFHNCGVAHVIIKSFREQENPTHLRFLYSVKEGSEAAVRRFSGVVPYHEGRYTGTGDVFAACLLAFSHSHPMDVAIGKSMAVLQELIIATRKEGGDGKSSLKSRELRVVASPQVVLQPSTVVDVKPIS | – | 48.0 ± 12.7 | 59.4 ± 14.8 | 1.65 ± 0.14 |
